# Data: article doi:10.1101/2020.12.16.421545v1
# B1: Ade1 (Amazonian Dark Earth Esterase 1) (uncultured Pseudomonadota bacterium) (protein)
# chain: MLYAQVNGINLHYEIEGQGQPLLLIMGLGAPAAAWDPIFVQTLTKTHQVIIYDNRGTGLSDKPDMPYSIAMFASDAVGLLDALNIPRAHVFGVSMGGMIAQELAIHYPQRVASLILGCTTPGGKHAVPAPPESLKALEGRAGLTPEEAIREGWKLSFSEEFIHTHKAELEAHIPRLLAQLTPRFAYERHFQATMTLRVFKQLKEIQAPTLVATGRDDMLIPAVNSEILAREIPGAELAIFESAGHGFVTSAREPFLKVLKEFLARQSV
# Substrate: CCCC(=O)Oc1ccc([N+](=O)[O-])cc1
# Assay: purified protein
# Assay type: biochemical, uncultured Pseudomonadota bacterium
# Details: 36 nM enzyme, no added Co2+
# [1] = without Triton X-100, sigmoidal (hysteresis)
protein,measurement,setting,value
B1,K0.5,with Triton X-100,254 ± 25 µM
same,kcat,with Triton X-100,47 ± 1 s⁻¹
same,K0.5,[1],392 ± 29 µM
same,kcat,[1],94 ± 3 s⁻¹
